# Laboratory results as given in US8877192B2, “Rage fusion proteins and methods of use” (TransTech Pharma, LLC, priority 2004, dated 2014).
# Like-named read-outs stand apart in the source and are kept apart here.
# B1: rodent sRAGE: rodent soluble RAGE, literature half-life comparator (protein, UniProt Q63495 23-341, looked up)
# extracellular domain: GQNITARIGEPLMLSCKGAPKKPTQKLEWKLNTGRTEAWKVLSPQGDPWDSVARILPNGSLLLPAIGIVDEGTFRCRATNRLGKEVKSNYRVRVYQIPGKPEIVNPASELTANVPNKVGTCVSEGSYPAGTLSWHLDGKPLIPDGKGTVVKEETRRHPETGLFTLRSELTVTPAQGGTTPTYSCSFSLGLPRRRPLNTAPIQPRVREPLPPEGIQLLVEPEGGTVAPGGTVTLTCAISAQPPPQIHWIKDGTPLPLAPSPVLLLPEVGHEDEGIYSCVATHPSHGPQESPPVNIRVTETGDEGQAAGSVDGSGLGTLAL
# modifications: extracellular domain
# notes: rodent soluble RAGE, literature half-life comparator
# B2: TTP-3000: three domain RAGE fusion protein (SEQ ID NO: 35): human RAGE amino acids 1-136 linked to CH2 and CH3 domains of human IgG (protein)
# chain: MAAGTAVGAWVLVLSLWGAVVGAQNITARIGEPLVLKCKGAPKKPPQRLEWKLNTGRTEAWKVLSPQGGGPWDSVARVLPNGSLFLPAVGIQDEGIFRCQAMNRNGKETKSNYRVRVYQIPGKPEIVDSASELTAGPSVFLFPPKPKDTLMISRTPEVTCVVVDVSHEDPEVKFNWYVDGVEVHNAKTKPREEQYNSTYRVVSVLTVLHQDWLNGKEYKCKVSNKALPAPIEKTISKAKGQPREPQVYTLPPSRDELTKNQVSLTCLVKGFYPSDIAVEWESNGQPENNYKTTPPVLDSDGSFFLYSKLTVDKSRWQQGNVFSCSVMHEALHNHYTQKSLSLSPGK
# B3: mouse sRAGE: mouse soluble RAGE used as comparator in the AD mouse model (protein, UniProt Q62151 23-340, looked up)
# extracellular domain: GQNITARIGEPLVLSCKGAPKKPPQQLEWKLNTGRTEAWKVLSPQGGPWDSVARILPNGSLLLPATGIVDEGTFRCRATNRRGKEVKSNYRVRVYQIPGKPEIVDPASELTASVPNKVGTCVSEGSYPAGTLSWHLDGKLLIPDGKETLVKEETRRHPETGLFTLRSELTVIPTQGGTHPTFSCSFSLGLPRRRPLNTAPIQLRVREPGPPEGIQLLVEPEGGIVAPGGTVTLTCAISAQPPPQVHWIKDGAPLPLAPSPVLLLPEVGHEDEGTYSCVATHPSHGPQESPPVSIRVTETGDEGPAEGSVGESGLGTLA
# modifications: extracellular domain
# notes: mouse soluble RAGE used as comparator in the AD mouse model
# Key:
# [1] = listed as human sRAGE; cited from earlier work
# [2] = cited from earlier work
# amphoterin (Ampho) = target: T1, amphoterin (Ampho) (Homo sapiens, UniProt P09429); assay: In vitro ligand binding (ELISA) to immobilized amphoterin; details: increasing dilutions of fusion protein; FIG. 7
# T1 sequence (P09429 1-215): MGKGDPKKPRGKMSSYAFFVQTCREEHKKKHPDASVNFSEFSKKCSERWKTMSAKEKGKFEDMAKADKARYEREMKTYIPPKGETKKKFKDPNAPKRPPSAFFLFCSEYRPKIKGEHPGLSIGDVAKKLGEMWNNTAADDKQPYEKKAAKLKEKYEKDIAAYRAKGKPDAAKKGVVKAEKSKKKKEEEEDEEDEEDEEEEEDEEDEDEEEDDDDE
# Procedure: (§1) For example, the RAGE fusion protein may be used in a binding assay to identify potential RAGE ligands. In one example embodiment of such a binding assay, a known RAGE ligand may coated onto a solid substrate (e.g., Maxisorb plates) at a concentration of about 5 micrograms per well, where each well contains a total volume of about 100 microliters (μL). The plates may be incubated at 4° C. overnight to allow the ligand to absorb. Alternatively, shorter incubation periods at higher temperature (e.g., room temperature) may be used. […] The fusion protein bound to the immobilized ligand may be detected in a variety of ways. […] The bound complex may be detected by adding the alkaline phosphatase substrate, para-nitrophenylphosphate (PNPP), and measuring conversion of PNPP to para-nitrophenol (PNP) as an increase in absorbance at 405 nm. […] Binding was detected by the addition of an immunodetection complex containing a monoclonal mouse anti-human IgG1 diluted 1:11,000 to a final assay concentration (FAC) of 21 ng/100 μL, a biotinylated goat anti-mouse IgG diluted 1:500, to a FAC of […], and an avidin-linked alkaline phosphatase. […] Binding of the complex to the immobilized fusion protein was quantified by measuring conversion of PNPP to para-nitrophenol (PNP) which was measured spectrophotometrically at 405 nm. […]
# amyloid-beta (Abeta) = target: T2, amyloid-beta (Abeta) (Homo sapiens, UniProt P05067); assay: In vitro ligand binding (ELISA) to immobilized amyloid-beta; details: increasing dilutions of fusion protein; FIG. 7
# T2 construct: Amyloid Beta (1-40) from Biosource; purchased Biosource
# Procedure: as §1
# S100b (S100) = target: T3, S100b (S100) (Homo sapiens, UniProt P04271); assay: In vitro ligand binding (ELISA) to immobilized S100b; details: increasing dilutions of fusion protein; FIG. 7
# T3 sequence (P04271 1-92): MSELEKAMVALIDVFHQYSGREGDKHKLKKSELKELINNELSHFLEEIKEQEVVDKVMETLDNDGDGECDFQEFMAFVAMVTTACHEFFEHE
# Procedure: as §1
# [3] = tested on: transgenic mice expressing the human Swedish mutant amyloid precursor protein (APP); assay: Mouse model of AD (APP transgenic mice); format: in vivo; details: treated for 3 months, versus vehicle and human IgG1
# Procedure: Experiments were performed to evaluate whether TTP-4000 could affect amyloid formation and cognitive dysfunction in a mouse model of AD. The experiments utilized transgenic mice expressing the human Swedish mutant amyloid precursor protein (APP) under the control of the PDGF-B chain promoter. Over time, these mice generate high levels of the RAGE ligand, amyloid beta (Aβ).
# The APP mice (male) used in this experiment were designed by microinjection of the human APP gene (with the Swedish and London mutations) into mouse eggs under the control of the platelet-derived growth factor B (PDGF-B) chain gene promoter. The mice were generated on a C57BL/6 background and were developed by Molecular Therapeutics Inc. Animals were fed ad libitum and maintained by brother sister mating. The mice generated from this construct develop amyloid deposits starting at 6 months of age. Animals were aged for 6 months and then maintained for 90 days and sacrificed for amyloid quantification.
# APP transgenic mice were administered vehicle or TTP4000 every other day [qod (i.p.)] for 90 days starting at 6 months of age. At the end of the experiment, animals were sacrificed and examined for Aβ plaque burden in the brain (i.e., plaque number). A 6-month control APP group was used to determine the baseline of amyloid deposits. In addition, at the end of the study, the animals were subjected to behavioral (Morris water maze) analysis. The investigators were blinded to the study compounds. Samples were given to the mice at 0.25 ml/mouse/every other day.
# For histological examination, the animals were anesthetized with an intraperitoneal injection (IP) of sodium pentobarbital (50 mg/kg). The animals were transcardially perfused with 4° C., phosphate-buffered saline (PBS) followed by 4% paraformaldehyde. The brains were removed and placed in 4% paraformaldehyde over night. The brains were processed to paraffin and embedded. Ten serial 30-μm thick sections through the brain were obtained. Sections were subjected to primary antibody overnight at 4° C. (Aβ peptide antibody) in order to detect the amyloid deposits in the brain of the transgenic animals (Guo et al., J. Neurosci., 22:5900-5909 (2002)). Sections were washed in Tris-buffered saline (TBS) and secondary antibody was added and incubated for 1 hour at room temperature. After washing, the sections were incubated as instructed in the Vector ABC Elite kit (Vector Laboratories) and stained with […] (DAB). The reactions were stopped in water and cover-slipped after treatment with xylene. The amyloid area in each section was determined with a computer-assisted image analysis system, consisting of a Power Macintosh computer equipped with a Quick Capture frame grabber card, Hitachi CCD camera mounted on an Olympus microscope and camera stand. NIH Image Analysis Software, v. 1.55 was used. The images were captured and the total area of amyloid was determined over the ten sections. A single operator blinded to treatment status performed all measurements. Summing the amyloid volumes of the sections and dividing by the total number of sections was done to calculate the amyloid volume.
# For quantitative analysis, an enzyme-linked immunosorbent assay (ELISA) was used to measure the levels of human total Aβ, Aβtotal and Aβ1-42 in the brains of APP transgenic mice (Biosource International, Camarillo, Calif.). Aβtotal and Aβ1-42 were extracted from mouse brains by guanidine hydrochloride and quantified as described by the manufacturer. […]
# T2 sequence (P05067 672-711 limits assumed): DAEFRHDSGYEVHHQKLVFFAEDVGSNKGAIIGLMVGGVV
molecule,measurement,setting,value
sRAGE: soluble RAGE: the RAGE protein that does not include the transmembrane region or the cytoplasmic tail,half-life in plasma,[1],about 2 hours
same,half-life,[2]; assessed by retention of immunoreactivity sRAGE,less than 2 hours
B1,half-life,[2]; in normal and diabetic rats,approximately 20 hours
B2,binding to immobilized amphoterin (absorbance at 405 nm),amphoterin (Ampho),specifically interact
same,binding to immobilized amyloid-beta (absorbance at 405 nm),amyloid-beta (Abeta),specifically interact
same,binding to immobilized S100b (absorbance at 405 nm),S100b (S100),specifically interact
B3,Aβ plaques in the brain,[3]; FIG. 14A,fewer Aβ plaques
same,cognitive dysfunction (Morris water maze),[3]; FIG. 14B,less cognitive dysfunction
